Results: patent publication US7528106B2, “Compositions and methods for treatment of neovascular diseases” (The Scripps Research Institute, priority 2004, dated 2009)

Test system: deep retinal vascular network formation in neonatal Balb/C mice
Experiment: Neonatal mouse retinal angiogenesis model
Type: in vivo
Details: for % of eyes with 75-100% inhibition of deep vascular layer / % of eyes with 0-10% inhibition of deep vascular layer / % of eyes with 10-25% inhibition of deep vascular layer / % of eyes with 25-50% inhibition of deep vascular layer / % of eyes with 50-75% inhibition of deep vascular layer: intravitreal P4, read P12
From the text: Description of the Model. Immediately after birth (postnatal day zero; “P0”), retinal vasculature is virtually absent in the mouse. By four weeks after birth (P28) the retina has attained an adult pattern of retinal vessels coincident with the onset of vision. Physiological neovascularization of the retina occurs during this period via a stereotypical, biphasic developmental pattern of angiogenesis. During the primary phase of retinal vascular development, spoke-like peripapillary vessels grow radially from the central retinal artery and vein, becoming progressively interconnected by a capillary plexus that forms between them. This “inner retinal plexus” grows in area, volume and complexity, centrifugally, as a monolayer within the nerve fiber layer during the first seven to ten days following birth.
The second phase of retinal vessel formation begins between postnatal days 7 (P7) and 10 (P10) when collateral branches sprout from capillaries of the superficial plexus and penetrate into the retina where their tips branch and anastamose laterally to form a planar “deep vascular plexus”. While the deep vascular plexus is in place by P14, it undergoes extensive remodeling from P14 to P21. It is of interest to note that the formation of these vascular networks in the neonatal mouse are strikingly similar to the events occurring in the third trimester human fetus.
Advantages and Quantification of the Model. The reproducibility of the murine retinal development process and its easy accessibility in neonatal animals provide an opportunity to assess the efficacy of antiangiogenic compounds in a physiologically relevant model of angiogenesis. Additional advantages of the neonatal mouse model are the ability to qualitatively and quantitatively evaluate the angiostatic effect of putative antagonists of angiogenesis. Angiostatic activity was evaluated based upon the degree of angiogenesis in the deep, outer retinal vascular layer (secondary layer) that develops between P8 and P12. The appearance of the inner blood vessel network (primary layer) was evaluated for normal development and signs of toxicity.
Preparation of Compositions. Peptidomimetic integrin signaling inhibitor Compound (1) is solubilized in PBS at a concentration of about 20 mg/ml in PBS (1× concentration). T2-TrpRS is solubilized in PBS at a concentration of about 0.5 mg/ml (1× concentration). VEGF aptamer (pegaptanib sodium; Compound (2)) is solubilized in PBS at a concentration of about 2 mg/ml (1× concentration) to achieve an injection of approximately 1 μg/eye at 1× concentration. For all combination assays the compounds were prepared at 2 or 3 times the 1× concentration of each material and then combined to produce a final solution containing each individual compound at the same concentration as was used alone (e.g., 1×, 0.5×, 0.25× or 0.1×, as the case may be). For all assays, a single injection of 0.5 μl of PBS solutions of the drugs was administered intravitreally regardless of the number of compounds being injected. As used herein, the term “0.1×” refers to one tenth of the 1× concentration of a given material, “0.25×” refers to one quarter of the 1× concentration of a given material, “0.5×” refers to one half of the 1× concentration of a given material, and so forth for similar designations.
An in vivo angiogenesis assay in the neonatal mouse (Balb/C, The Jackson Laboratory, Bar Harbor, Me.) was used to evaluate the angiostatic activity of integrin signaling inhibitor Compound (1), T2-TrpRS, and VEGF aptamer Compound (2). Intravitreous injection and retina isolation was performed with a dissecting microscope (SMZ 645, Nikon, Japan). […] The samples (0.5 μl) were injected with a Hamilton syringe fitted with a 32-gauge needle (Hamilton Company, Reno, Nev.). The injection was made between the equator and the corneal limbus. During injection, the location of the needle tip was monitored by direct visualization to determine that it was in the vitreal cavity. […]

[1] = Table 12, composite data from the Examples, 1× (Compound (2) 0.5× to 1×)
[2] = Table 13A, 0.25 μg per eye, intravitreal P7, read P12
[3] = Table 13C low dosing, 0.1x (integrin ant. 1.0 μg, VEGF apt. 0.20 μg, T2-TrpRS 0.025 μg)

B1: T2-TrpRS: 43 kDa angiostatic T2 fragment of human tryptophanyl-tRNA synthetase, SEQ ID NO: 1 (protein)
chain: MSAKGIDYDKLIVRFGSSKIDKELINRIERATGQRPHHFLRRGIFFSHRDMNQVLDAYENKKPFYLYTGRGPSSEAMHVGHLIPFIFTKWLQDVFNVPLVIQMTDDEKYLWKDLTLDQAYSYAVENAKDIIACGFDINKTFIFSDLDYMGMSSGFYKNVVKIQKHVTFNQVKGIFGFTDSDCIGKISFPAIQAAPSFSNSFPQIFRDRTDIQCLIPCAIDQDPYFRMTRDVAPRIGYPKPALLHSTFFPALQGAQTKMSASDPNSSIFLTDTAKQIKTKVNKHAFSGGRDTIEEHRQFGGNCDVDVSFMYLTFFLEDDDKLEQIRKDYTSGAMLTGELKKALIEVLQPLIAEHQARRKEVTDEIVKEFMTPRKLSFDFQ
modifications: homo sapiens
% of eyes with 75-100% inhibition of deep vascular layer (Ex 10, 0.3× (1×=0.5 mg/ml)): 25% | % of eyes with 0-10% inhibition of deep vascular layer (Ex 10, 1× (0.5 mg/ml)): 8.3% | % of eyes with 10-25% inhibition of deep vascular layer (Ex 10, 1× (0.5 mg/ml)): 16.7% | % of eyes with 25-50% inhibition of deep vascular layer (Ex 10, 1× (0.5 mg/ml)): 25% | % of eyes with 50-75% inhibition of deep vascular layer (Ex 10, 1× (0.5 mg/ml)): 8.7% | % of eyes with 75-100% inhibition of deep vascular layer (Ex 10, 1× (0.5 mg/ml)): 41.7% | % of eyes with 0-10% inhibition of deep vascular layer (Ex 10, 2× (1×=0.5 mg/ml)): 8.3% | % of eyes with 10-25% inhibition of deep vascular layer (Ex 10, 2× (1×=0.5 mg/ml)): 25% | % of eyes with 25-50% inhibition of deep vascular layer (Ex 10, 2× (1×=0.5 mg/ml)): 0% | % of eyes with 50-75% inhibition of deep vascular layer (Ex 10, 2× (1×=0.5 mg/ml)): 16.7% | % of eyes with 75-100% inhibition of deep vascular layer (Ex 10, 2× (1×=0.5 mg/ml)): 41.7% | % of eyes with 0-10% inhibition of deep vascular layer (Ex 10, 3× (1×=0.5 mg/ml)): 66.7% | % of eyes with 10-25% inhibition of deep vascular layer (Ex 10, 3× (1×=0.5 mg/ml)): 25% | % of eyes with 25-50% inhibition of deep vascular layer (Ex 10, 3× (1×=0.5 mg/ml)): 8.7% | % of eyes with 50-75% inhibition of deep vascular layer (Ex 10, 3× (1×=0.5 mg/ml)): 0% | % of eyes with 75-100% inhibition of deep vascular layer (Ex 10, 3× (1×=0.5 mg/ml)): 0% | % of eyes with 0-10% inhibition of deep vascular layer (Ex 11, 0.3× (1×=0.5 mg/ml)): 33.3% | % of eyes with 10-25% inhibition of deep vascular layer (Ex 11, 0.3× (1×=0.5 mg/ml)): 16.7% | % of eyes with 25-50% inhibition of deep vascular layer (Ex 11, 0.3× (1×=0.5 mg/ml)): 0% | % of eyes with 50-75% inhibition of deep vascular layer (Ex 11, 0.3× (1×=0.5 mg/ml)): 0% | % of eyes with 75-100% inhibition of deep vascular layer (Ex 11, 0.3× (1×=0.5 mg/ml)): 50% | % of eyes with 0-10% inhibition of deep vascular layer (Ex 11, 1× (0.5 mg/ml)): 14.3% | % of eyes with 10-25% inhibition of deep vascular layer (Ex 11, 1× (0.5 mg/ml)): 14.3% | % of eyes with 25-50% inhibition of deep vascular layer (Ex 11, 1× (0.5 mg/ml)): 7.1% | % of eyes with 50-75% inhibition of deep vascular layer (Ex 11, 1× (0.5 mg/ml)): 14.3% | % of eyes with 75-100% inhibition of deep vascular layer (Ex 11, 1× (0.5 mg/ml)): 50% | % of eyes with 0-10% inhibition of deep vascular layer (Ex 11, 2× (1×=0.5 mg/ml)): 12.5% | % of eyes with 10-25% inhibition of deep vascular layer (Ex 11, 2× (1×=0.5 mg/ml)): 12.5% | % of eyes with 25-50% inhibition of deep vascular layer (Ex 11, 2× (1×=0.5 mg/ml)): 12.5% | % of eyes with 50-75% inhibition of deep vascular layer (Ex 11, 2× (1×=0.5 mg/ml)): 12.5% | % of eyes with 75-100% inhibition of deep vascular layer (Ex 11, 2× (1×=0.5 mg/ml)): 50% | % of eyes with 0-10% inhibition of deep vascular layer (Ex 11, 3× (1×=0.5 mg/ml)): 14.3% | % of eyes with 10-25% inhibition of deep vascular layer (Ex 11, 3× (1×=0.5 mg/ml)): 14.3% | % of eyes with 25-50% inhibition of deep vascular layer (Ex 11, 3× (1×=0.5 mg/ml)): 14.3% | % of eyes with 50-75% inhibition of deep vascular layer (Ex 11, 3× (1×=0.5 mg/ml)): 28.5% | % of eyes with 75-100% inhibition of deep vascular layer (Ex 11, 3× (1×=0.5 mg/ml)): 28.5% | % of eyes with 0-10% inhibition of deep vascular layer (Ex 11, 5× (1×=0.5 mg/ml)): 16.6% | % of eyes with 10-25% inhibition of deep vascular layer (Ex 11, 5× (1×=0.5 mg/ml)): 33.3% | % of eyes with 25-50% inhibition of deep vascular layer (Ex 11, 5× (1×=0.5 mg/ml)): 33.3% | % of eyes with 50-75% inhibition of deep vascular layer (Ex 11, 5× (1×=0.5 mg/ml)): 16.6% | % of eyes with 75-100% inhibition of deep vascular layer (Ex 11, 5× (1×=0.5 mg/ml)): 0% | mice having 75-100% inhibition in the deep vascular layer, maximum over doses (Examples 10 and 11, 0.1× to 5×): ≤ 50% | % of mice with 0-10% inhibition of deep vascular layer [1]: 23.9% | % of mice with 10-25% inhibition of deep vascular layer [1]: 17.4% | % of mice with 25-50% inhibition of deep vascular layer [1]: 15.2% | % of mice with 50-75% inhibition of deep vascular layer [1]: 8.7% | % of mice with 75-100% inhibition of deep vascular layer [1]: 34.8% | % of mice with 100% inhibition of deep vascular layer [1]: 2.2% | % of mice with >95% inhibition of deep vascular layer [1]: 8.7% | Percentage of retinas with 0-10% neovascular inhibition [2]: 23.9% | Percentage of retinas with 10-25% neovascular inhibition [2]: 17.4% | Percentage of retinas with 25-50% neovascular inhibition [2]: 15.2% | Percentage of retinas with 50-75% neovascular inhibition [2]: 8.7% | Percentage of retinas with 100% neovascular inhibition [2]: 2.2% | Percentage of retinas with >75% neovascular inhibition [2]: 34.8% | Percentage of retinas with >90% neovascular inhibition [2]: 8.7% | Percentage of retinas with 0-10% neovascular inhibition [3]: 50% | Percentage of retinas with 10-25% neovascular inhibition [3]: 37.5% | Percentage of retinas with 25-50% neovascular inhibition [3]: 12.5% | Percentage of retinas with 50-75% neovascular inhibition [3]: 0% | Percentage of retinas with 100% neovascular inhibition [3]: 0% | Percentage of retinas with >75% neovascular inhibition [3]: 0% | Percentage of retinas with >90% neovascular inhibition [3]: 0% | retinas that developed a normal, complete deep vascular plexus (monotherapy at optimal dose): 24% | retinas that exhibited over 75% inhibition (monotherapy at optimal dose): 35% | efficacy at the 95-100% inhibition level (with increasing dosages, Examples 10 and 11): ≤ 50%
